Data taken from article PMC10576055.
Where “and” joins values, the source holds several entries; their conditions need not be identical. Equal entries are not always repeated.

Biological target: T1, GIPR-Rluc8 (human), P48546
T1 chain: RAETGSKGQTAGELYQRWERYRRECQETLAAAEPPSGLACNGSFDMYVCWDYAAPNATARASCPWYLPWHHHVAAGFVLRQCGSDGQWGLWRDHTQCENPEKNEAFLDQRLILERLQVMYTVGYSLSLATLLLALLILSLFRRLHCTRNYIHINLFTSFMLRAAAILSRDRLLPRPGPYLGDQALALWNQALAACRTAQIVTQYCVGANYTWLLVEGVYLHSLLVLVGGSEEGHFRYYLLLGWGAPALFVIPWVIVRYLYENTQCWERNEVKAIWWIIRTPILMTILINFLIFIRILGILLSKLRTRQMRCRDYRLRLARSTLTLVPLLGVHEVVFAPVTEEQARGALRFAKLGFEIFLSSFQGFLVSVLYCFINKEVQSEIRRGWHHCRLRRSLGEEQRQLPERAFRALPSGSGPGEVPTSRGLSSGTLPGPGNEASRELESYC
Assay: FRET or BRET
Conditions: remark: other sources report otherwise

B1: Venus-β-arrestin 1, P49407 1-418 (natural protein)
chain: MGDKGTRVFKKASPNGKLTVYLGKRDFVDHIDLVDPVDGVVLVDPEYLKERRVYVTLTCAFRYGREDLDVLGLTFRKDLFVANVQSFPPAPEDKKPLTRLQERLIKKLGEHAYPFTFEIPPNLPCSVTLQPGPEDTGKACGVDYEVKAFCAENLEEKIHKRNSVRLVIRKVQYAPERPGPQPTAETTRQFLMSDKPLHLEASLDKEIYYHGEPISVNVHVTNNTNKTVKKIKISVRQYADICLFNTAQYKCPVAMEEADDTVAPSSTFCKVYTLTPFLANNREKRGLALDGKLKHEDTNLASSTLLREGANREILGIIVSYKVKVKLVVSRGGLLGDLASSDVAVELPFTLMHPKPKEEPPHREVPENETPVDTNLIELDTNDDDIVFEDFARQRLKGMKDDKEEEEDGTGSPQLNNR
For B1, the pEC50 of GIP (1-42) for β-arr1 recruitment (BRET) was 7.7 and 7.94 and 7.67.
